The values below come from the supplement of paper PMC5998384.

The subject of data set [1] is HeLa Kyoto. Briefly: solubility change mitosis vs G1/S (difference of NP-40 vs SDS log2 ratios) (log2 ratio difference); higher = more soluble in mitosis.
The subject of data set [2] is HeLa Kyoto. Nature of the data set: thermal stability score vs G1/S (z-score of summed log2 fold changes over temperatures); higher = more thermally stable than in G1/S.
The test system of data set [3] is HeLa Kyoto. Nature of the data set: solubility in G1/S (NP-40 vs SDS abundance) (log2 ratio); higher = more soluble. As to conditions: cell cycle stage: G1/S.
Where [4] appears, read: cell cycle stage: early G1 (4.5 h after nocodazole release).
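For solubility change mitosis vs G1/S (difference of NP-40 vs SDS log2 ratios) in this document: synchronized HeLa Kyoto cells (double thymidine block for G1/S, nocodazole release for mitosis), protein amounts in NP-40 versus SDS lysates quantified by mass spectrometry, three biological replicates.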
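For solubility in G1/S (NP-40 vs SDS abundance) in this document: HeLa Kyoto cells arrested at G1/S by double thymidine block, proteins quantified by TMT10plex mass spectrometry in mild NP-40 versus SDS extracts, three biological replicates.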
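For thermal stability score vs G1/S (z-score of summed log2 fold changes over temperatures) in this document: synchronized HeLa Kyoto cells, proteins quantified by TMT10plex mass spectrometry, three biological replicates, mitosis taken 0.5 h after nocodazole release, G1/S directly after double thymidine block.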

As to “MEVRKLSISWQFLIVLVLILQILSALDFDPYRVLGVSRTASQADIKKAYKKLAREWHPDKNKDPGAEDKFIQISKAYEILSNEEKRSNYDQYGDAGENQGYQKQQQQREYRFRHFHENFYFDESFFHFPFNSERRDSIDEKYLLHFSHYVNEVVPDSFKKPYLIKITSDWCFSCIHIEPVWKEVIQELEELGVGIGVVHAGYERRLAHHLGAHSTPSILGIINGKISFFHNAVVRENLRQFVESLLPGNLVEKVTNKNYVRFLSGWQQENKPHVLLFDQTPIVPLLYKLTAFAYKDYLSFGYVYVGLRGTEEMTRRYNINIYAPTLLVFKEHINRPADVIQARGMKKQIIDDFITRNKYLLAARLTSQKLFHELCPVKRSHRQRKYCVVLLTAETTKLSKPFEAFLSFALANTQDTVRFVHVYSNRQQEFADTLLPDSEAFQGKSAVSILERRNTAGRVVYKTLEDPWIGSESDKFILLGYLDQLRKDPALLSSEAVLPDLTDELAPVFLLRWFYSASDYISDCWDSIFHNNWREMMPLLSLIFSALFILFGTVIVQAFSDSNDERESSPPEKEEAQEKTGKTEPSFTKENSSKIPKKGFVEVTELTDVTYTSNLVRLRPGHMNVVLILSNSTKTSLLQKFALEVYTFTGSSCLHFSFLSLDKHREWLEYLLEFAQDAAPIPNQYDKHFMERDYTGYVLALNGHKKYFCLFKPQKTVEEEEAIGSCSDVDSSLYLGESRGKPSCGLGSRPIKGKLSKLSLWMERLLEGSLQRFYIPSWPELD [DNAJC16]”, the “solubility change mitosis (log2)” value with HeLa Kyoto [1] was 1.48e-05. Besides, the values for the thermal stability score in the data set on HeLa Kyoto [2] (setting [4]) and with HeLa Kyoto [2] (cell cycle stage: mitosis) were -0.236 and -0.485, respectively. Further, in the data set on HeLa Kyoto [3], the “solubility in G1/S (log2)” value was -0.398.
The corresponding values for “MDTTAAAALPAFVALLLLSPWPLLGSAQGQFSAGGCTFDDGPGACDYHQDLYDDFEWVHVSAQEPHYLPPEMPQGSYMIVDSSDHDPGEKARLQLPTMKENDTHCIDFSYLLYSQKGLNPGTLNILVRVNKGPLANPIWNVTGFTGRDWLRAELAVSTFWPNEYQVIFEAEVSGGRSGYIAIDDIQVLSYPCDKSPHFLRLGDVEVNAGQNATFQCIATGRDAVHNKLWLQRRNGEDIPVAQTKNINHRRFAASFRLQEVTKTDQDLYRCVTQSERGSGVSNFAQLIVREPPRPIAPPQLLGVGPTYLLIQLNANSIIGDGPIILKEVEYRMTSGSWTETHAVNAPTYKLWHLDPDTEYEIRVLLTRPGEGGTGLPGPPLITRTKCAEPMRTPKTLKIAEIQARRIAVDWESLGYNITRCHTFNVTICYHYFRGHNESKADCLDMDPKAPQHVVNHLPPYTNVSLKMILTNPEGRKESEETIIQTDEDVPGPVPVKSLQGTSFENKIFLNWKEPLDPNGIITQYEISYSSIRSFDPAVPVAGPPQTVSNLWNSTHHVFMHLHPGTTYQFFIRASTVKGFGPATAINVTTNISAPTLPDYEGVDASLNETATTITVLLRPAQAKGAPISAYQIVVEELHPHRTKREAGAMECYQVPVTYQNAMSGGAPYYFAAELPPGNLPEPAPFTVGDNRTYQGFWNPPLAPRKGYNIYFQAMSSVEKETKTQCVRIATKAATEEPEVIPDPAKQTDRVVKIAGISAGILVFILLLLVVILIVKKSKLAKKRKDAMGNTRQEMTHMVNAMDRSYADQSTLHAEDPLSITFMDQHNFSPRYENHSATAESSRLLDVPRYLCEGTESPYQTGQLHPAIRVADLLQHINLMKTSDSYGFKEEYESFFEGQSASWDVAKKDQNRAKNRYGNIIAYDHSRVILQPVEDDPSSDYINANYIDGYQRPSHYIATQGPVHETVYDFWRMIWQEQSACIVMVTNLVEVGRVKCYKYWPDDTEVYGDFKVTCVEMEPLAEYVVRTFTLERRGYNEIREVKQFHFTGWPDHGVPYHATGLLSFIRRVKLSNPPSAGPIVVHCSAGAGRTGCYIVIDIMLDMAEREGVVDIYNCVKALRSRRINMVQTEEQYIFIHDAILEACLCGETAIPVCEFKAAYFDMIRIDSQTNSSHLKDEFQTLNSVTPRLQAEDCSIACLPRNHDKNRFMDMLPPDRCLPFLITIDGESSNYINAALMDSYRQPAAFIVTQYPLPNTVKDFWRLVYDYGCTSIVMLNEVDLSQGCPQYWPEEGMLRYGPIQVECMSCSMDCDVINRIFRICNLTRPQEGYLMVQQFQYLGWASHREVPGSKRSFLKLILQVEKWQEECEEGEGRTIIHCLNGGGRSGMFCAIGIVVEMVKRQNVVDVFHAVKTLRNSKPNMVEAPEQYRFCYDVALEYLESS [PTPRK]” are -0.0752, 1.97, 1.47 and 0.0167.
On the same counts, the results for “MGKRDNRVAYMNPIAMARSRGPIQSSGPTIQDYLNRPRPTWEEVKEQLEKKKKGSKALAEFEEKMNENWKKELEKHREKLLSGSESSSKKRQRKKKEKKKSGRYSSSSSSSSDSSSSSSDSEDEDKKQGKRRKKKKNRSHKSSESSMSETESDSKDSLKKKKKSKDGTEKEKDIKGLSKKRKMYSEDKPLSSESLSESEYIEEVRAKKKKSSEEREKATEKTKKKKKHKKHSKKKKKKAASSSPDSP [FAM133B]” are 0.889, -5.3, -3.34 and -1.16.
On the same counts, the results for “MKRRNADCSKLRRPLKRNRITEGIYGSTFLYLKFLVVWALVLLADFVLEFRFEYLWPFWLFIRSVYDSFRYQGLAFSVFFVCVAFTSNIICLLFIPIQWLFFAASTYVWVQYVWHTERGVCLPTVSLWILFVYIEAAIRFKDLKNFHVDLCRPFAAHCIGYPVVTLGFGFKSYVSYKMRLRKQKEVQKENEFYMQLLQQALPPEQQMLQKQEKEAEEAAKGLPDMDSSILIHHNGGIPANKKLSTTLPEIEYREKGKEKDKDAKKHNLGINNNNILQPVDSKIQEIEYMENHINSKRLNNDLVGSTENLLKEDSCTASSKNYKNASGVVNSSPRSHSATNGSIPSSSSKNEKKQKCTSKSPSTHKDLMENCIPNNQLSKPDALVRLEQDIKKLKADLQASRQVEQELRSQISSLSSTERGIRSEMGQLRQENELLQNKLHNAVQMKQKDKQNISQLEKKLKAEQEARSFVEKQLMEEKKRKKLEEATAARAVAFAAASRGECTETLRNRIRELEAEGKKLTMDMKVKEDQIRELELKVQELRKYKENEKDTEVLMSALSAMQDKTQHLENSLSAETRIKLDLFSALGDAKRQLEIAQGQILQKDQEIKDLKQKIAEVMAVMPSITYSAATSPLSPVSPHYSSKFVETSPSGLDPNASVYQPLKK [TMEM57]” are 0.256, -1.41, -2.47 and -0.363.
With “MVQKYQSPVRVYKYPFELIMAAYERRFPTCPLIPMFVGSDTVNEFKSEDGAIHVIERRCKLDVDAPRLLKKIAGVDYVYFVQKNSLNSRERTLHIEAYNETFSNRVIINEHCCYTVHPENEDWTCFEQSASLDIKSFFGFESTVEKIAMKQYTSNIKKGKEIIEYYLRQLEEEGITFVPRWSPPSITTSSETSSSSSKKQAASMAVVIPEAALKEGLSGDALSSPSAPEPVVGTPDDKLDADYIKRYLGDLTPLQESCLIRLRQWLQETHKGKIPKDEHILRFLRARDFNIDKAREIMCQSLTWRKQHQVDYILETWTPPQVLQDYYAGGWHHHDKDGRPLYVLRLGQMDTKGLVRALGEEALLRYVLSINEEGLRRCEENTKVFGRPISSWTCLVDLEGLNMRHLWRPGVKALLRIIEVVEANYPETLGRLLILRAPRVFPVLWTLVSPFIDDNTRRKFLIYAGNDYQGPGGLLDYIDKEIIPDFLSGECMCEVPEGGLVPKSLYRTAEELENEDLKLWTETIYQSASVFKGAPHEILIQIVDASSVITWDFDVCKGDIVFNIYHSKRSPQPPKKDSLGAHSITSPGGNNVQLIDKVWQLGRDYSMVESPLICKEGESVQGSHVTRWPGFYILQWKFHSMPACAASSLPRVDDVLASLQVSSHKCKVMYYTEVIGSEDFRGSMTSLESSHSGFSQLSAATTSSSQSHSSSMISR [SEC14L1]”, the “solubility change mitosis (log2)” value in the data set on HeLa Kyoto [1] is -0.126. The thermal stability score in the data set on HeLa Kyoto [2] (setting [4]) was -0.528; in the data set with HeLa Kyoto [2] (cell cycle stage: mitosis) it was 0.106. For the same sequence, in the data set with HeLa Kyoto [3], the “solubility in G1/S (log2)” value was -0.0916.
